What was measured:
[1] = molecular target: T1, PDGF receptor from BB-PDGF-stimulated Rat-2 cells (activated PDGF-R) (rat (endogenous protein of Rat-2 cells), UniProt Q05030, phosphotyrosine (after stimulation with 75 nM BB-PDGF; sites not stated)); test: pull-down of immobilised TrpE fusion from lysate of PDGF-stimulated Rat-2 cells, immunoblot
Method: The following procedure was used to investigate binding of TryE fusion proteins that contain GAP, Src, or Crk SH2 domains to PDGF-R in lysates of stimulated Rat-2 cells. Serum-starved Rat-2 cells were stimulated for 5 min at 37° C. with 75 nM BB-PDGF, lysed, and mixed with the indicated immobilized TrpE bacterial fusion proteins. Complexes were washed, resolved on 7.5% SDS-polyacrylamide gels and analyzed by immunoblotting with anti-P.Tyr (8 hour exposure) or with anti-PDGF-R (18 hour exposure).
Because GAP also associates with the PDGF-R, experiments were carried out using bacterial GAP SH2 sequences (see FIG. 7). The GAP SH2[N] domain bound the PDGF-R in a lysate of PDGF-stimulated cells (FIG. 9), but not in unstimulated cells.

[2] = molecular target: T1, PDGF receptor from BB-PDGF-stimulated …; test: pull-down from lysate of PDGF-stimulated Rat-2 PLCγ1 cells; competitor: overexpressed cellular PLCγ1
Text: Only a minor fraction of activated PDGF-R complexes with PLCγ1 in vivo. A Rat-2 cell line was genetically modified to overexpress PLCγ1 by tenfold as compared with the endogenous enzyme (Rat-2 PLCγ1). There is a proportionate increase in the amount of PDGF-R precipitated with antibodies to PLCγ1 (anti-PLCγ1) after PDGF stimulation of Rat-2 PLCγ1 cells, in comparison with parental Rat-2 cells. If bacterial PLCγ1 SH2 domains bound to the same site(s) on the PDGF-R as did cellular PLCγ1, then overexpression of PLCγ1 should block binding of bacterial PLCγ1 SH2 domains to activated PDGF-R in vitro. To investigate this Rat-2 cells (FIG. 10, lanes 1, 2, 5 and 6) or a Rat-2 cell line that overexpressed PLCγ1 by tenfold (R2-PLCγ; lanes 3, 4, 7, 8) were stimulated with PDGF (lanes 1, 3, and 5–8) or maintained without PDGF (lanes 2 and 4). Cell lysates were mixed with immobilized TrpE-PLC-SH2[N] (lanes 1 to 4), TrpE-PLC-SH2[N+C] (lanes 5 and 7), or TrpE-GAP-SH2 [N+3+C] ([…]). Samples were washed, separated by gel electrophoresis, and immunoblotted with anti-P.Tyr. Similar results were obtained by blotting with anti-PDGF-R.

Row | Binder | fold more efficient binding than expected from the individual SH2 domains [1] [fold] | PDGF-R associated, relative to parental PDGF-stimulated Rat-2 cells [2]
1 | TrpE-GAP-SH2[N+3+C] (other) MQTQKPTLELLTCEGAYRDNPTALFHQLCGDRPATLLLESADIDSKDDLKSLLLVDSALRITALGDTVTIQALSGNGEALLALLDNALPAGVESEQSPNCRVLRFPPVSPLLDEDARLCSLSVFDAFRLLQNLLNVPKEEREAMFFGGLFSYDLVAGFEDLPQLSAENNCPDFCFYLAETLMVIDHQKKSTRIQASLFAPNEEEKQRLTARLNELRQQLTEAAPPLPVVSVPHMRCECNQSDEEFGGVVRLLQKAIRAGEIFQVVPSRRFSLPCPSPLAAYYVLKKSNPSPYMFFMQDNDFTLFGASPESSLKYDATSRQIEITNQWYHGKLDRTIAEERLRQAGKSGSYLIRESDRRPGSFVLSFLSQMNVVNHFRIIAMCGDYYIGGRRFSSLSDLIGYYSHVSCLLKGEKLLYPVAPPEPVEDRRRVRAILPYTKVPDTDEISFLKGDMFIVHNELEDGWMWVTNLRTDEQGLIVEDLVEEVGREEDPHEGKIWFHGKISKQEAYNLLMTVGQVCSFLVRPSDNTPGDYSLYFRTNENIQRFKICPTPNNQFMMGGRYYNSIGDIIDHYRKEQIVEGYYLKEPVPMQD | 3 | –
2 | TrpE-PLC-SH2[N] (other) MQTQKPTLELLTCEGAYRDNPTALFHQLCGDRPATLLLESADIDSKDDLKSLLLVDSALRITALGDTVTIQALSGNGEALLALLDNALPAGVESEQSPNCRVLRFPPVSPLLDEDARLCSLSVFDAFRLLQNLLNVPKEEREAMFFGGLFSYDLVAGFEDLPQLSAENNCPDFCFYLAETLMVIDHQKKSTRIQASLFAPNEEEKQRLTARLNELRQQLTEAAPPLPVVSVPHMRCECNQSDEEFGGVVRLLQKAIRAGEIFQVVPSRRFSLPCPSPLAAYYVLKKSNPSPYMFFMQDNDFTLFGASPESSLKYDATSRQIEIWFHGKLGAGRDGRHIAERLLTEYCIETGAPDGSFLVRESETFVGDYTLSFWRNGKVQHCRIHSRQDAGTPKFFLTDNLVFDSLYDLITHYQQVPLRCNEFEMRLSEPV | – | 0.33 fraction of the amount from parental Rat-2 cells
3 | TrpE-PLC-SH2[N+C] (other) MQTQKPTLELLTCEGAYRDNPTALFHQLCGDRPATLLLESADIDSKDDLKSLLLVDSALRITALGDTVTIQALSGNGEALLALLDNALPAGVESEQSPNCRVLRFPPVSPLLDEDARLCSLSVFDAFRLLQNLLNVPKEEREAMFFGGLFSYDLVAGFEDLPQLSAENNCPDFCFYLAETLMVIDHQKKSTRIQASLFAPNEEEKQRLTARLNELRQQLTEAAPPLPVVSVPHMRCECNQSDEEFGGVVRLLQKAIRAGEIFQVVPSRRFSLPCPSPLAAYYVLKKSNPSPYMFFMQDNDFTLFGASPESSLKYDATSRQIEIWFHGKLGAGRDGRHIAERLLTEYCIETGAPDGSFLVRESETFVGDYTLSFWRNGKVQHCRIHSRQDAGTPKFFLTDNLVFDSLYDLITHYQQVPLRCNEFEMRLSEPVPQTNAHESKEWYHASLTRAQAEHMLMRVPRDGAFLVRKRNEPNSYAISFRAEGKIKHCRVQQEGQTVMLGNSEFDSLVDLISYYEKHPLYRKMKLRYPI | – | 0.33 fraction of the amount from parental Rat-2 cells

From patent US5814466, “Method for assaying for a substance that affects an SH2-phosphoraylated ligand regulatory system” (Mount Sinai Hospital Corporation, dated 1998)
